Data taken from the supplement of paper PMC10567573.
± gives the standard deviation.

Assay: protein stability index of a GFP-peptide fusion (GPS, HEK-293T) (PSI 1-6); higher = more stable
[1] = treatment: DMSO, c terminus: a fixed tail appended
[2] = treatment: MLN4924 1 uM, 8 h, c terminus: a fixed tail appended
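Further: 24-mer peptide tiles fused after GFP, lentivirally expressed, FACS-sorted into six equal bins by GFP/DsRed ratio, decoded by Illumina sequencing, PSI is the read-weighted mean bin number.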

Sequence | protein stability index [1] | protein stability index [2] | protein stability index (treatment: DMSO, c terminus: native) | protein stability index (treatment: MLN4924 1 uM, 8 h, c terminus: native)
PMVTSPREEQQLLASTSKPVVKLL [KCTD13] | 4.26 ± 0.32 | 4.25 ± 0.11 | – | –
PPAMPPPATHLSPALAPVPRNSCI [TRIM9] | 4.39 ± 0.13 | 4.38 ± 0.17 | – | –
PPPCKFGEGKLSKRLKHKDDSVMK [C22orf31] | 4.51 ± 0.15 | 4.61 ± 0.06 | – | –
PPPPPPAQTFLFQGQPVVNRPLSL [TRADD] | 3.71 ± 0.4 | 3.99 ± 0.29 | – | –
PQHAADTPKSGEPRVPEEAAQDRP [YJU2B] | 5.62 ± 0.26 | 5.42 ± 0.26 | – | –
PRVLTLSERPLDFLDLERPPTTPQ [MFF] | 4.26 ± 0.19 | 4.53 ± 0.41 | – | –
PSDDLTLLESSSSYKNLTLKFHKL [MCOLN1] | 3.24 ± 0.21 | 3.31 ± 0.24 | – | –
PSEKKVAIIRTPPKSPATPKQLRL [MAP2] | 4.2 ± 0.15 | 4.28 ± 0.15 | – | –
PSGAGKTVVGVPSGKVSSSSSSLG [ZC2HC1A] | 4.47 ± 0.35 | 4.65 ± 0.14 | – | –
PSIIPQEDPSQQFLQQSLERVYSL [INTS4] | 3.58 ± 0.17 | 3.58 ± 0.28 | – | –
PSNTGSRTTSVRCRGIPRGPVRPA [NEK8] | 3.89 ± 0.089 | 4 ± 0.17 | – | –
PSWAALNSSTWGSLKQALKGLSVE [SNX8] | 2.94 ± 0.17 | 3.46 ± 0.29 | – | –
PVCADLQAKILQCYRENTHQTLKC [CHCHD3] | 3.02 ± 0.23 | 3 ± 0.25 | – | –
PVCPTVCPPGGIHQVTVNESLLAP [KRT71] | 4.36 ± 0.082 | 4.16 ± 0.21 | – | –
PVNALVSHLLVVEPEKLYAMPDPA [ESRRA] | 2.88 ± 0.24 | 2.92 ± 0.27 | – | –
PWCPHLVAVCPIPAAGLDVTQPCG [HDAC6] | 2.4 ± 0.24 | 2.67 ± 0.34 | – | –
PYTPPATSHRRVTDVRGLEEFLSA [PLEKHN1] | 3.98 ± 0.19 | 3.91 ± 0.35 | – | –
QAAKQIKDGVTMAPAFRLSLKAKV [FSD1] | 3 ± 0.23 | 3.02 ± 0.33 | – | –
QCNICGKCFSCNSNLHRHQRTHTG [ZNF263] | 4.44 ± 0.13 | 4.63 ± 0.29 | – | –
QCPYCQRRFNENAADRHINFCKEQ [ZC2HC1A] | 4.91 ± 0.38 | 5.09 ± 0.2 | – | –
QDFLLFSPEVESLPVASSSTLLPL [NFE2L1] | 3.34 ± 0.79 | 3.37 ± 0.57 | – | –
QEKLQVLMAEGLLPAVKVFLDWLR [SMG5] | 2.5 ± 0.7 | 2.57 ± 0.54 | – | –

Sequence | protein stability index [1] | protein stability index [2] | protein stability index (treatment: DMSO, c terminus: native) | protein stability index (treatment: MLN4924 1 uM, 8 h, c terminus: native)
QFEPQLTLWDVFGANKEVQELLER [RSAD1] | 3.24 ± 0.26 | 3.8 ± 0.47 | – | –
QGENQEHLVIAEMMELGSRSRGAS [FATE1] | 4.73 ± 0.34 | 4.73 ± 0.12 | – | –
QGEYPPGTSTWQFNFKFNLTEDMY [CNOT7] | 1.9 ± 0.42 | 2.15 ± 0.46 | – | –
QGLLHEAGSTDDRIVVPQRGRSTR [SPNS1] | 5.13 ± 0.32 | 5.14 ± 0.15 | – | –
QGRNSLWLSDWVTSYKVMVSNDSH [CPXM2] | 1.92 ± 0.25 | 2.47 ± 0.56 | – | –
QGSRSGVSGGSRSLNMSRRDSEST [PHTF1] | 4.86 ± 0.4 | 4.9 ± 0.22 | – | –
QIILENQKNFGLYVQEKRDGLKRR [RAD54B] | 2.41 ± 0.47 | 2.97 ± 0.32 | – | –
QKEGEFSTCFTELQRDFLKQRPTK [OAS1] | 4.26 ± 0.45 | 4.22 ± 0.3 | – | –
QLQDQDQKLLEQTQIIGEQNARLA [FBXO28] | 4.75 ± 0.18 | 4.74 ± 0.15 | – | –
QLRNVRERLAKNLVEKGVLTTEKQ [GOLPH3] | 3.68 ± 0.34 | 3.84 ± 0.17 | – | –
QLVSFQKLKLTNNHLDPFGHIILN [TBX5] | 2.33 ± 0.39 | 2.23 ± 0.33 | – | –
QNLLKELQDLALQGAKERAHQQKK [CHGA] | 4.75 ± 0.23 | 4.52 ± 0.14 | – | –
QNQPIDKARKTYERLVAQFPSSGR [CSTF3] | 3.75 ± 0.26 | 3.9 ± 0.24 | – | –
QPKKLHLCPLCGKNFSNNSNLIRH [ZNF263] | 3.02 ± 0.39 | 3.37 ± 0.64 | – | –
QPVMQSDRTAIRSDTTHLVTLGGV [KLHL13] | 3.88 ± 0.28 | 3.83 ± 0.35 | – | –
QPVQSKPQKASAPAADPPRYTFAP [PDLIM7] | 4.37 ± 0.27 | 4.44 ± 0.3 | – | –
QQAEKILKSMDKNGTMTIDWNEWR [SLC25A25] | 3.36 ± 0.47 | 3.56 ± 0.39 | – | –
QQLDLRWNNVGLLGGRALMNCLPS [LRRC45] | 2.65 ± 0.2 | 2.48 ± 0.2 | – | –
QRITQEQEKKLSFIEALIQQYQEQ [TRIM63] | 2.68 ± 0.36 | 3.02 ± 0.52 | – | –
QRLPRSAPPGSLVTKVTAVDADAG [PCDHGC5] | 4.76 ± 0.21 | 4.82 ± 0.3 | – | –
QRRSRQNPQSPPQDSSVTSKRNIK [HDAC6] | 5.26 ± 0.51 | 5.27 ± 0.31 | – | –
QSWNNQAWNSPFYNCGEESLQSCM [NANOGP8] | 2.51 ± 0.18 | 2.48 ± 0.33 | – | –

Sequence | protein stability index [1] | protein stability index [2] | protein stability index (treatment: DMSO, c terminus: native) | protein stability index (treatment: MLN4924 1 uM, 8 h, c terminus: native)
QVAKREREAATKHSKASLPTGEGS [CHCHD6] | 5.32 ± 0.47 | 5.26 ± 0.33 | – | –
QVTASDSGDPPLSSNVSLSLFVLD [PCDHGA10] | 3.31 ± 0.4 | 3.48 ± 0.29 | – | –
QVVVLVRDNGDPSLSSTATVLLVL [PCDHGC5] | 3.25 ± 0.44 | 3.17 ± 0.23 | – | –
QYAIISEAWRLVEEGIVSPSDLDL [CRYL1] | 3.16 ± 0.19 | 3.21 ± 0.34 | – | –
QYKKEPVTTRQVRTIVEEVQDGKV [KRT17] | 5 ± 0.22 | 5.12 ± 0.29 | – | –
RAAYQQVIQPALPGQPLPGASVRG [TRAF3IP2] | 4.36 ± 0.35 | 4.18 ± 0.32 | – | –
RAKFKRKYKVKLVEKRAFREIQL [NOP53] | – | – | 2.56 ± 0.36 | 2.79 ± 0.17
RAPLHSVGYTALVGSDAESWGWDL [SPSB4] | 2.81 ± 0.28 | 3.13 ± 0.17 | – | –
RAPPKRKRKRVKQRINTYVFVGNQ [PCMTD1] | 3.53 ± 0.15 | 3.41 ± 0.43 | – | –
RAVLGANDPEKNFLTTAIRPHGIF [NSDHL] | 2.73 ± 0.47 | 3.33 ± 0.039 | – | –
RCLHMFLQDEIIDKSYTPSKIRHA [SNX3] | 2.05 ± 0.58 | 1.92 ± 0.52 | – | –
RDKILTATIENNRVILEIDNARLA [KRT13] | 2.69 ± 0.29 | 2.83 ± 0.33 | – | –
RDNDHPDHSSRELSKILAKLERLK [FUT8] | 2.39 ± 0.25 | 2.27 ± 0.24 | – | –
REAVPALLGEPLAGPELDEMLREV [CABP4] | 5.13 ± 0.22 | 5.12 ± 0.31 | – | –
RECGLAAPRFSFNDPSGSEEADFL [IRX6] | 4.53 ± 0.21 | 4.34 ± 0.33 | – | –
REEEDRALPENEFKKQIWLLFEYP [KCNA4] | 2.7 ± 0.19 | 2.94 ± 0.46 | – | –
REENEKLRLENSSLFSQALKDEEA [CCDC89] | 5.41 ± 0.46 | 5.41 ± 0.37 | – | –
RELGPEELDELQAAFEEFDTDRDG [CABP4] | 5.63 ± 0.39 | 5.54 ± 0.35 | – | –
REVILKELAEATWCGISTDMWRSE [ZBED1] | 2.71 ± 0.62 | 2.93 ± 0.58 | – | –
REYLSEEVQAVHKNTTYDLIANIV [USP39] | 2.23 ± 0.23 | 2.32 ± 0.11 | – | –
RFALRFIRPDPRSRVTDPVGDIVS [FAF2] | 2.49 ± 0.35 | 2.62 ± 0.31 | – | –
